Holding throughout (assay): BLI; Octet R2; His6-tagged OMP-TF bound to rabbit anti-His mAb and tethered to ProA biosensors; analyte: crude cell lysate of J-Flag at different concentrations; PBS with 0.1% BSA and 0.01% Tween-20; double reference subtraction (buffer and TF sensor); 1:1 binding model
The target of experiment [1] is OmpX fused to TF and His tag (S. Typhimurium).
Experiment [2] has as its target BtuB fused to TF and His tag (S. Typhimurium) (UniProt P37409).
The target in experiment [3] is OmpC fused to TF and His tag (S. Typhimurium) (UniProt P0A263).
Chain of OmpC fused to TF and His tag (S. Typhimurium) (P0A263 22-378): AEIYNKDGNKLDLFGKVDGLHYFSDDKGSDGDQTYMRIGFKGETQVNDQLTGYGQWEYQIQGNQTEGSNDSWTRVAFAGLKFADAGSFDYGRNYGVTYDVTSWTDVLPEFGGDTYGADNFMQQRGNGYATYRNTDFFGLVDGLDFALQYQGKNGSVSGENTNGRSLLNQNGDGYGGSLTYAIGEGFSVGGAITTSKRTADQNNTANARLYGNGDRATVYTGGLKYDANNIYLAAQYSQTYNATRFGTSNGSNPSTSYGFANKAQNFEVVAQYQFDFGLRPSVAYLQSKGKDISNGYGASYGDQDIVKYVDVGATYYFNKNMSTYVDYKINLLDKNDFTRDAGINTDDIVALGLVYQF

Chain of BtuB fused to TF and His tag (S. Typhimurium) (P37409 21-614): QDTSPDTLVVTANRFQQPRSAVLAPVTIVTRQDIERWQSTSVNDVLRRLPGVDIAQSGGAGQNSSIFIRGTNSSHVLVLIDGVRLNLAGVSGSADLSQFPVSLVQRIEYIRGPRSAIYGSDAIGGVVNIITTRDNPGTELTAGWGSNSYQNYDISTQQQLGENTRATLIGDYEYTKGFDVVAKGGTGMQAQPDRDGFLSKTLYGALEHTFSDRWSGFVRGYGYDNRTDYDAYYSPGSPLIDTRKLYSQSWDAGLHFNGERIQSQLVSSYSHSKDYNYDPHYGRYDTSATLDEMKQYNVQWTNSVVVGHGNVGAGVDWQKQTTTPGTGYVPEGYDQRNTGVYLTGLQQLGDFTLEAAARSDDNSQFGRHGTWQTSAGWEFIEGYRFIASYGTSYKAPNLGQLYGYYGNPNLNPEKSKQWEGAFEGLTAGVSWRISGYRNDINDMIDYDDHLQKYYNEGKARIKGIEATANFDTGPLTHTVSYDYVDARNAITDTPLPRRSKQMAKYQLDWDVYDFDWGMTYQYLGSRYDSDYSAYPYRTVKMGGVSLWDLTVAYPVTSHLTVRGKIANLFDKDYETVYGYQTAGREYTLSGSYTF

In the case of “Gifsy-1 central tail tip J protein with Flag tag (natural protein)”, the Kd in experiment [1] came to 70 nM; in experiment [2], 0.00597 nM; in experiment [3] it was 0.341 nM.

The term Kd denotes the equilibrium constant for the complex coming apart. The low end stands for a tighter complex, the high end for a looser complex.
